In series [1] the target is T1, GST-DRG9Nip (F267G) F267G (Oryza sativa ssp. japonica cv. Nipponbare) (UniProt Q69P58).
T1 sequence: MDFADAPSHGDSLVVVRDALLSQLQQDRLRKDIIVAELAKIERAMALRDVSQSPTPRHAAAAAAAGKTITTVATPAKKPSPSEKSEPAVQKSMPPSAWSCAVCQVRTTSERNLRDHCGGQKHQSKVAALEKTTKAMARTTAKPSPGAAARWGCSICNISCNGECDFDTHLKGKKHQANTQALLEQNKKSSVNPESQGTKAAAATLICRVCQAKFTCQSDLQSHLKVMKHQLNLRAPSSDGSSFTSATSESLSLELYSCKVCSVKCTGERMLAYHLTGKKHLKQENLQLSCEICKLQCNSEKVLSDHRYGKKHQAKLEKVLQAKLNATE
The series is described as follows: EMSA. The settings on record: 20 mM Hepes pH 7.5, 20 mM KCl2 (so in the source), 1 mM MgCl2, 10 mM ZnCl2, 5 mM DTT, 10% glycerol, 0.1% NP-40, room temperature, 1 h; 6% native PAGE, 0.5x TBE. (Mobility shift assays separate free from complexed probe on a gel.)

The target of series [2] is T2, GST-DRG9Nip (N186S) N186S (Oryza sativa ssp. japonica cv. Nipponbare) (UniProt Q69P58).
T2 sequence: T1 sequence with N186S, G267F
The series is described as follows: EMSA. The conditions noted are these: 20 mM Hepes pH 7.5, 20 mM KCl2 (so in the source), 1 mM MgCl2, 10 mM ZnCl2, 5 mM DTT, 10% glycerol, 0.1% NP-40, room temperature, 1 h; 6% native PAGE, 0.5x TBE.

Positions count from the first letter of the chain named.

The text below walks through data of PMC10957929.

As for “GGGCUCAAAUUAAUUAGCCAGUGAAAAAUCAAAUUACAGAGUUGCUUAAUUUUUUUACUAGUAGAACGCAACAGUAAAAAGAAUUAACAGCAGUGAAUUAUUAGUUAAUUAGCUAGGGAGUUGAAAUAGUUUAGCGGUCAUGCACUACUGAUUUUUAAUUAGUGCAGACAACGACCGCGUGUGUGUAUAUGCAUGUAUACCUUUUACUGUAUCUUCAGAUUGUGUAUAUAUAUCAUAUAUGUACAGGAAAAGAUUUAUAUAUCAUACAUAUUUUGUUGU [OsNCED4 3'-UTR RNA]”, the binding result is given as “binds more weakly” in series [1] and “binds” in series [2].
